Source: patent US20220089725A1

Columns and labels:
[1] = molecular target: human FCMR on blood cells (human) (UniProt O60667); assay: flow cytometry of fresh human whole blood, isotype control row of the left (2A5) panel; gated subset not stated; FMO row reads 24.7
[2] = molecular target: human FCMR on blood cells (human) (UniProt O60667); assay: flow cytometry of fresh human whole blood, isotype control row of the right (3F9) panel; gated subset not stated; FMO row reads 24.7
[3] = molecular target: human FCMR on blood cells (human) (UniProt O60667); assay: flow cytometry of fresh human whole blood, gated CD19+ B cells, aToso 2A5 : AF647, left panel
[4] = molecular target: recombinant human FCMR-Fc (human) (UniProt O60667); assay: SPR (Biacore), 25 C, antibody immobilised, FCMR-Fc titrated at 500 to 0 nM
[5] = molecular target: human FCMR on blood cells (human) (UniProt O60667); assay: flow cytometry of fresh human whole blood, gated CD3+CD8+ T cells, aToso 2A5 : AF647, left panel
[6] = molecular target: human FCMR on blood cells (human) (UniProt O60667); assay: flow cytometry of fresh human whole blood, gated CD3+CD4+ T cells, aToso 2A5 : AF647, left panel

Chain of UniProt O60667 (O60667 17-390): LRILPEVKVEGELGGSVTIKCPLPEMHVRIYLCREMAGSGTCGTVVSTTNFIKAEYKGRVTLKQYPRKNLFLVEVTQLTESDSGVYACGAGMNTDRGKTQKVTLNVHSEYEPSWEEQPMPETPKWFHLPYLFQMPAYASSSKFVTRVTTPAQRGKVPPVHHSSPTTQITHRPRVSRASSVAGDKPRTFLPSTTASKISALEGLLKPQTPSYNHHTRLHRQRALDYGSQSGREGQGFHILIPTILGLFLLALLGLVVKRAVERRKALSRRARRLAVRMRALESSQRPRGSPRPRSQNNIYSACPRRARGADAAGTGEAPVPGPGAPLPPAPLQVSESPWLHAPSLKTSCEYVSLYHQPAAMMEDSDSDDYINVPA

mean fluorescence intensity [1] | mean fluorescence intensity [2] | mean fluorescence intensity [3] | Kd [4] [nM] | koff [4] [s⁻¹] | kon [4] [M⁻¹ s⁻¹] | mean fluorescence intensity [5] | mean fluorescence intensity [6] | Molecule
25.6 | 25.6 | – | – | – | – | – | – | Isotype Control (antibody)
– | – | 960 | 7.21 | 0.000247 | 34700 | 414 | 247 | FCMR 2A5 antibody (antibody, V domains shown) VH: EVQLVESGGDLVKPGGSLKLSCAASGFTFSSYGMSWVRQTPDKRLEWVATINSGGSSIYYPDSVKGRFTISRDNAKNTLYLQMSSLKSEDTAMYYCARHNYDSSYRYAMDYWGQGTSVTVSS VL: DIKMTQSPSSMYASLGERVTITCKASQDINNFLSWFQQKPGKSPKTLIYRANGLVDGVPSRFSGSGSGQDYSLTISSLEYEDMGIYYCLQYDEFPPTFGGGTKLEFKR
